Read-outs that look alike come from different tables or passages of the source.

Data on three molecules can be found in patent US20130158238A1 (THERACLONE SCIENCES, published 2013).

Experiment [1] deals with M2e peptide … (23mer synthetic peptide of M2 derived from A/Fort Worth/1/50) (Influenza A virus A/Fort Worth/1/50 (H1N1)). The experiment can be described thus: ELISA, peptide 2 µg/mL, mAb 5 µg/mL.
In a further experiment the target is M2e. As to the kind of experiment: ELISA, peptide 2 µg/mL, mAb 5 µg/mL. (In an ELISA, binding on a coated surface is turned into a signal by an enzyme label.)
The target in experiment [2] is M2e peptide … (23mer synthetic peptide of M2 derived from A/Fort Worth/1/50) (Influenza A virus A/Fort Worth/1/50 (H1N1)). The experiment can be described thus: ELISA, peptide coated at 1 µg/ml.
The target in experiment [3] is M2 protein of A/Puerto Rico/8/34 (H1N1), on cells (Influenza A virus A/Puerto Rico/8/34 (H1N1)) (UniProt P06821). The experiment can be described thus: flow cytometry on MDCK cells infected with A/Puerto Rico/8/34. (In general: A flow cytometer gives signals particle by particle.)
The target in a further experiment is T1, A.Hong Kong.1.68.H3N2.
T1 M2: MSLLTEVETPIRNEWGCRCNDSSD
The experiment can be described thus: FACS, transfected HEK293, mAb 1 µg/ml [D00006 FIG. 3C-1].

The target of the next experiment is T2, A.Caracas.1.71.H3N2.
T2 M2: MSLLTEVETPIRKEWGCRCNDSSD
Described as above.

The target of experiment [4] is T3, A.X-31 Vaccine strain H3N2.
T3 M2: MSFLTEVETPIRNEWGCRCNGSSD
The experiment is described as above.

The next experiment deals with T4, A.Hong Kong.1180.99 H3N2.
T4 M2: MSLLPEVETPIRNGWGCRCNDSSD
As to the kind of experiment: FACS, transfected HEK293 [D00006 FIG. 3C-1].

The next experiment addresses T5, A.Hong Kong.1144.99.H3N2.
T5 M2: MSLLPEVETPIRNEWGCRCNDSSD
The experiment can be described thus: FACS, transfected HEK293 [D00006 FIG. 3C-1].

The target of another experiment is NM15. The experiment can be described thus: ELISA, peptide 2 µg/mL, mAb 5 µg/mL.
The target in experiment [5] is M2e peptide … (23mer synthetic peptide of M2 derived from A/Fort Worth/1/50) (Influenza A virus A/Fort Worth/1/50 (H1N1)). The experiment can be described thus: ELISA, peptide 2 µg/mL, mAb 5 µg/mL. This is another data set of the same source.
In a further experiment the target is M16. As to the kind of experiment: ELISA, peptide 2 µg/mL, mAb 5 µg/mL.
A further experiment deals with M15. As to the kind of experiment: ELISA, peptide 2 µg/mL, mAb 5 µg/mL.
A further experiment has as its target NM17. The experiment can be described thus: ELISA, peptide 2 µg/mL, mAb 5 µg/mL.

On to “14C2 (chimeric mouse V-region/human IgG1 kappa 14C2 antibody)”, for which the values for the binding activity (ELISA A450) (in experiment [1]; with M2e) were 3.85 and 3.98, respectively. Further, the EC50 in experiment [2] was 0.01 µg/mL. In addition, in experiment [3], the EC50 (read off the curve) was 0.3 µg/mL.

B1: 23K12 (antibody, V domains shown)
VH: EVQLVESGGGLVQPGGSLRISCAASGFTVSSNYMSWVRQAPGKGLEWVSVIYSGGSTYYADSVKGRFSFSRDNSKNTVFLQMNSLRAEDTAVYYCARCLSRMRGYGLDVWGQGTTVTVS
VL: DIQMTQSPSSLSASVGDRVTITCRTSQSISSYLNWYQQKPGKAPKLLIYAASSLQSGVPSRFSGSGSGTDFTLTISGLQPEDFATYYCQQSYSMPAFGQGTKLEIK
Regarding B1, the binding result with A.Hong Kong.1.68.H3N2 is given as “binds”; in the experiment with A.Caracas.1.71.H3N2, “binds”; in experiment [4], “binds”; with A.Hong Kong.1180.99 H3N2 it was “no binding (tested: 1 µg/ml)”; in the experiment with A.Hong Kong.1144.99.H3N2, “no binding (tested: 1 µg/ml)”. The binding activity (ELISA A450) came out at 0.3 in the experiment with NM15; 0.22 in experiment [5]; 0.21 with M16; 0.21 with M15; 0.58 with NM17.

B2: 8i10 (antibody, V domains shown)
VH: QVQLQESGPGLVKPSETLSLTCTVSGSSISNYYWSWIRQSPGKGLEWIGFIYYGGNTKYNPSLKSRVTISQDTSKSQVSLTMSSVTAAESAVYFCARASCSGGYCILDYWGQGTLVTVS
VL: DIQMTQSPSSLSASVGDRVTITCRASQNIYKYLNWYQQRPGKAPKGLISAASGLQSGVPSRFSGSGSGTDFTLTITSLQPEDFATYYCQQSYSPPLTFGGGTRVEIK
As to B2, the binding result (with A.Caracas.1.71.H3N2; in experiment [4]) was “binds” in each case.

In general, EC50 refers to the concentration that produces a half-maximal response. A lower EC50 goes with higher potency in that assay. Usually EC50 (read off the curve) stands for the midpoint of the concentration-response curve. Lower therefore signals higher potency in that assay.
